Test results: US20100184663A1 (UNIVERSITY OF UTAH RESEARCH FOUNDATION, published 2010)
Bridge positions count the residues as written; N and C are the ends. Square brackets hold non-standard residues; d marks the D form. Ends that are not written are not given here. I, II: the chains in the order shown.

B1: C0C(PIE7-GK)3 (peptide)
peptide 1: G[dA][dC][dD][dY][dP][dE][dW][dQ][dW][dL][dC][dA][dA]G[dK]
peptide 2: G[dA][dC][dD][dY][dP][dE][dW][dQ][dW][dL][dC][dA][dA]G[dK][dK]
modifications: disulfide I:3-I:12, II:3-II:12 (inferred); also: trimer: two chain 1 copies joined via C-terminal Lys by zero length spacers to the C-terminal Lys of central chain 2
B2: PIE7-GK-PEG4 (peptide)
peptide: Ac-G[dA][dC][dD][dY][dP][dE][dW][dQ][dW][dL][dC][dA][dA]G[dK]-NH2
modifications: disulfide 3-12 (inferred); also: PEG4 attached at the C-terminus, order with amide not given here
B3: PEG5-(PIE13)2 (peptide)
peptide: [dH][dP][dC][dD][dY][dP][dE][dW][dQ][dW][dL][dC][dK][dL]G[dK]
modifications: disulfide 3-12 (inferred); also: dimer crosslinked via internal Lys with PEG5 linker
B4: N0C(PIE7)2 (peptide)
peptide: [dK]G[dA][dC][dD][dY][dP][dE][dW][dQ][dW][dL][dC][dA][dA]
modifications: disulfide 4-13 (inferred); also: dimer joined N- to C-terminus by zero length spacer
B5: C9C(PIE7-GK)2 (peptide)
peptide: G[dA][dC][dD][dY][dP][dE][dW][dQ][dW][dL][dC][dA][dA]G[dK]
modifications: disulfide 3-12 (inferred); also: dimer joined C- to C-terminus by PEG9 spacer on C-terminal Lys
B6: N0N(PIE7)2 (peptide)
peptide: [dK]G[dA][dC][dD][dY][dP][dE][dW][dQ][dW][dL][dC][dA][dA]
modifications: disulfide 4-13 (inferred); also: dimer joined N- to N-terminus by zero length spacer
B7: C5C(PIE7-GK)2 (peptide)
peptide: G[dA][dC][dD][dY][dP][dE][dW][dQ][dW][dL][dC][dA][dA]G[dK]
modifications: disulfide 3-12 (inferred); also: dimer joined C- to C-terminus by PEG5 spacer on C-terminal Lys

How the values were obtained:
[1] = biological target: HIV-1 gp41 (HXB2 strain) (HIV-1 HXB2, UniProt P04578 512-856); experiment: cell-based or functional assay
[2] = biological target: HIV-1 gp41 (JRFL strain) (HIV-1 JRFL); experiment: cell-based or functional assay

Row | Binder | IC50 (HXB2), pseudovirion entry [1] [nM] | IC50 (JRFL), pseudovirion entry [2] [nM]
1 | B1 | 0.117 | 16.1
2 | B2 | 351 | 13100
3 | [dK]G[dA][dC][dD][dY][dP][dE][dW][dQ][dW][dL][dC][dA][dA] (disulfide 4-13 (inferred); also: dimer joined N- to C-terminus by PEG9 spacer) [N9C(PIE7)2] | 0.329 | 313
4 | B3 |  | 15.1
5 | [dH][dP][dC][dD][dY][dP][dE][dW][dQ][dW][dL][dC][dE][dL]G[dK] (disulfide 3-12 (inferred); also: dimer joined C- to C-terminus by PEG5 spacer) [C5C(PIE12)2] |  | 14.2
6 | Ac-[dH][dP][dC][dD][dY][dP][dE][dW][dQ][dW][dL][dC][dR][dL]G[dK]-NH2 (disulfide 3-12 (inferred)) [PIE14] | 33.1 | 1050
7 | [dH][dP][dC][dD][dY][dP][dE][dW][dQ][dW][dL][dC][dE][dL]G[dK] (disulfide 3-12 (inferred); also: trimer, C-termini joined by PEG5 spacers) [C5C(PIE12)3] |  | 2.77
8 | [dK]G[dA][dC][dD][dY][dP][dE][dW][dQ][dW][dL][dC][dA][dA] (disulfide 4-13 (inferred); also: dimer joined N- to C-terminus by PEG5 spacer) [N5C(PIE7)2] | 0.575 | 300
9 | [dK]G[dA][dC][dD][dY][dP][dE][dW][dQ][dW][dL][dC][dA][dA] (disulfide 4-13 (inferred); also: dimer joined N- to N-terminus by PEG5 spacer) [N5N(PIE7)2] | 1.13 | 1410
10 | Ac-[dH][dA][dC][dD][dY][dP][dE][dW][dQ][dW][dL][dC][dE][dL]G[dK]-NH2 (disulfide 3-12 (inferred)) [PIE15] | 66.7 | 1450
11 | Ac-[dH][dP][dC][dD][dY][dP][dE][dW][dQ][dW][dL][dC][dK][dL]G[dK]-NH2 (disulfide 3-12 (inferred)) [PIE13] | 41.3 | 1470
12 | B4 | 0.534 | 402
13 | B5 | 0.354 | 215
14 | Ac-G[dA][dC][dD][dY][dP][dE][dW][dQ][dW][dL][dC][dA][dA]G[dK][dK]-NH2 (disulfide 3-12 (inferred)) [PIE7-GKK] | 382 | 19100
15 | B6 | 0.801 | 1090
16 | B7 | 0.355 | 203
17 | Ac-G[dA][dC][dD][dY][dP][dE][dW][dQ][dW][dL][dC][dA][dA]G[dK]-NH2 (disulfide 3-12 (inferred)) [PIE7-GK] | 389 | 15800
18 | [dK]G[dA][dC][dD][dY][dP][dE][dW][dQ][dW][dL][dC][dA][dA] (disulfide 4-13 (inferred); also: trimer, N-termini joined by PEG9 spacers) [N9N(PIE7)3] | 0.25 | 220
19 | Ac-[dH][dP][dC][dD][dY][dP][dE][dW][dQ][dW][dL][dC][dE][dL]G[dK]-NH2 (disulfide 3-12 (inferred)) [PIE12] |  | 578
20 | Ac-[dK]G[dA][dC][dD][dY][dP][dE][dW][dQ][dW][dL][dC][dA][dA]G[dK]-NH2 (disulfide 4-13 (inferred)) [K-PIE7-GK] |  | 14800
